Data taken from patent US20240270860A1.

Biological target: T1, S03933
T1 chain: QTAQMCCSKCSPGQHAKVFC
Assay: linear peptide ELISA; Affinity +
Details: remark: other sources report otherwise

Reading: 0.1
B1: antagonistic TNFR2 antibody TNFRAB1 (antibody, V domains shown)
VH: EVQLQESGGGLVKPGGSLKLSCAASGFTFSSYVMSWVRQTPEKRLEWVATISSGGSYTYYPDSVKGRFTISRDNAKNTLYLQMSSLRSEDTAMYYCARQRVDGYSSYWYFDVWGAGTAVTVSS
VL: DIVLTQSPAIMSASPGEKVTITCSASSSVYYMYWFQQKPGTSPKLWIYSTSNLASGVPVRFSGSGSGTSYSLTISRMEAEDAATYYCQQRRNYPYTFGGGTKLEIKRA
